Measurements from PMC3486911 (PLoS Pathogens, 2012).

Assays:
[1] = biological target: Factor H binding protein, variant group 1 (V1.p1), wild type (Neisseria meningitidis) (UniProt Q9JXV4); test: SPR
[2] = biological target: V3 fHbp P106A (Neisseria meningitidis); test: SPR
[3] = biological target: Factor H binding protein, variant group 3 (V3.p28), wild type (Neisseria meningitidis) (UniProt E6MV22); test: SPR
[4] = biological target: V2 fHbp Glu283Ala (Neisseria meningitidis); test: SPR
[5] = biological target: V2 fHbp Thr304Glu (Neisseria meningitidis); test: SPR
[6] = biological target: V1 fHbp E283A (Neisseria meningitidis); test: SPR
[7] = biological target: V2 fHbp with Val272 replaced by Ala (Neisseria meningitidis); test: SPR
[8] = biological target: V2 fHbp with Glu313 replaced by Ala (Neisseria meningitidis); test: SPR
[9] = biological target: V1 fHbp I311A (Neisseria meningitidis); test: SPR
[10] = biological target: V2 fHbp Thr304Ala (Neisseria meningitidis); test: SPR
[11] = biological target: V2 fHbp with Ala at position 157 (Neisseria meningitidis) (UniProt E6MV22); test: SPR
[12] = biological target: Factor H binding protein, variant group 2 (V2.p21), wild type (Neisseria meningitidis) (UniProt E6MV22); test: SPR
[13] = biological target: V3 fHbp with Val272 replaced by Ala (Neisseria meningitidis); test: SPR
[14] = biological target: V1 fHbp with Val272 replaced by Ala (Neisseria meningitidis); test: SPR
[15] = biological target: V2 fHbp with Leu195 replaced by Ala (Neisseria meningitidis); test: SPR
[16] = biological target: Factor H binding protein, variant group 2 (V2.p21), wild type (UniProt E6MV22); test: SPR
[17] = biological target: Factor H binding protein, variant group 3 (V3.p28), wild type (UniProt E6MV22); test: SPR
[18] = biological target: T1, Factor H binding protein, variant group 1 (V1.p1), wild type (Neisseria meningitidis, UniProt Q9JXV4 20-274); test: SPR; settings: both partners purified
T1 construct: also called V1 fHbp; fHbp
T1 sequence: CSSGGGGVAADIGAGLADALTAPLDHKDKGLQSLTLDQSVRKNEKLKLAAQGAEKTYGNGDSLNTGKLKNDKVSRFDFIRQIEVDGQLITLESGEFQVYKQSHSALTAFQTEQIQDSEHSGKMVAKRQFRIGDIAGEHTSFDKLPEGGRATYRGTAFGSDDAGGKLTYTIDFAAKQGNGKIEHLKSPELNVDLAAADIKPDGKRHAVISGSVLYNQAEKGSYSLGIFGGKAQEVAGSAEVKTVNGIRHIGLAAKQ

[19] = biological target: T1, Factor H binding protein, variant group …; test: not stated; dose response curve of mfH67 binding V1 fHbp (Fig. S2); settings: both partners purified

“human fH67 with His337 and Arg341 replaced by the murine residues (domain or fragment)” showed a Kd [1] of 7000 nM.

“human factor H CCP domains 6 and 7 (domain or fragment)” was tested, and the fold increase in strength of binding relative to wild type [2] was 100 fold, the Kd [3] was 2.8 nM and the fold increase in KD relative to wild type [4] was 40 fold. It also gave a fold increase in KD relative to wild type [5] of 200 fold, a fold increase in KD relative to wild type [6] of 7 fold and a fold reduction in binding relative to wild type [7] greater than 5 fold. It also gave a fold reduction in binding relative to wild type [8] greater than 5 fold, a Kd [9] of 1300 nM and a fold increase in KD relative to wild type [10] of 10 fold. For the same molecule, the fold increase in binding relative to wild type [11] was 5 fold, the Kd [12] was 1.9 nM and the fold reduction in binding relative to wild type [13] was greater than 5 fold. It also gave a fold reduction in binding relative to wild type [14] greater than 5 fold, a fold reduction in binding relative to wild type [15] greater than 5 fold and a Kd [1] of 2.2 nM.

“human factor H CCP domains 6 and 7 K351R; Y352K” showed a Kd [16] of 44000 nM and a Kd [17] of 33000 nM.

B1: human fH67 with Lys351 and Tyr352 replaced by the murine residues (domain or fragment)
chain: TLKPCDYPDIKHGGLYHENMRRPYFPVAVGRKYSYYCDEHFETPSGSYWDHIHCTQDGWSPAVPCLRKCYFPYLENGYNQNHGRKFVQGKSIDVACHPGYALPKAQTTVTCMENGWSPTPRCI
For B1, the Kd [18] was 2800 ± 500 nM.

B2: murine factor H CCP domains 6 and 7 (domain or fragment)
chain: LKPCEFPQFKYGRLYYEESLRPNFPVSIGNKYSYKCDNGFSPPSGYSWDYLRCTAQGWEPEVPCVRKCVFHYVENGDSAYWEKVYVQGQSLKVQCYNGYSLQNGQDTMTCTENGWSPPPKCI
notes: also called mfH67; mfH; source: cloned into pET-15b; expressed and purified using the method described previously [40]
For B2, the “fold higher KD than hfH” value [19] was greater than 10000 fold.
